# From US20240400708A1
# Positions count from the first letter of the chain named. Names may count otherwise.
# B1: feline IgG1a mutant ID No. 368: S252Y, S434R, L314K (antibody, part only; not given: Variable domains, not shown: another chain or arm of the molecule)
# constant: ASTTAPSVFPLAPSCGTTSGATVALACLVLGYFPEPVTVSWNSGALTSGVHTFPAVLQASGLYSLSSMVTVPSSRWLSDTFTCNVAHPPSNTKVDKTVRKTDHPPGPKPCDCPKCPPPEMLGGPSIFIFPPKPKDTLYISRTPEVTCLVVDLGPDDSDVQITWFVDNTQVYTAKTSPREEQFNSTYRVVSVLPILHQDWKKGKEFKCKVNSKSLPSPIERTISKAKGQPHEPQVYVLPPAQEELSRNKVSVTCLIKSFHPPDIAVEWEITGQPEPENNYRTTPPQLDSDGTYFVYSKLSVDRSHWQRGNTYTCSVSHEALHRHHTQKSLTQSPGK
# B2: feline IgG1a mutant ID No. 369: S252Y, S434R, P247L (antibody, part only; not given: Variable domains, not shown: another chain or arm of the molecule)
# constant: B1 constant with P133L, K200L
# B3: feline IgG1a mutant ID No. 370: S252Y, S434R, Q311H (antibody, part only; not given: variable domains and light chain, not shown: another chain or arm of the molecule)
# constant: B1 constant with Q197H, K200L
# B4: feline IgG1a mutant ID No. 371: S252Y, S434R, Q311K (antibody, part only; not given: Variable domains, not shown: another chain or arm of the molecule)
# constant: B1 constant with Q197K, K200L
# B5: feline IgG1a mutant ID No. 372: S252Y, S434R, Q311M (antibody, part only; not given: Variable domains, not shown: another chain or arm of the molecule)
# constant: B1 constant with Q197M, K200L
# B6: feline IgG1a mutant ID No. 373: S252Y, S434R, Q311R (antibody, part only; not given: Variable domains, not shown: another chain or arm of the molecule)
# constant: B1 constant with Q197R, K200L
# B7: feline IgG1a mutant ID No. 374: S252Y, S434R, Q311Y (antibody, part only; not given: Variable domains, not shown: another chain or arm of the molecule)
# constant: B1 constant with Q197Y, K200L
# B8: feline IgG1a mutant ID No. 375: S252Y, S434R, S254V (antibody, part only; not given: Variable domains, not shown: another chain or arm of the molecule)
# constant: B1 constant with S140V, K200L
# B9: feline IgG1a mutant ID No. 376: S252Y, S434R, T250Q (antibody, part only; not given: Variable domains, not shown: another chain or arm of the molecule)
# constant: B1 constant with T136Q, K200L
# B10: feline IgG1a mutant ID No. 377: S252Y, S434R, T256M (antibody, part only; not given: Variable domains, not shown: another chain or arm of the molecule)
# constant: B1 constant with T142M, K200L
# B11: feline IgG1a mutant ID No. 378: S252Y, S434R, T403R (antibody, part only; not given: Variable domains, not shown: another chain or arm of the molecule)
# constant: B1 constant with K200L, T291R
# B12: feline IgG1a Fc mutant S428L, S252H (antibody, part only; not given: variable domains and light chain, not shown: another chain or arm of the molecule; small tags and cut ends)
# constant: B1 constant with Y138H, K200L, S316L, R322S
# B13: feline IgG1a Fc mutant S428L, S252Y (antibody, part only; not given: Variable domains, not shown: another chain or arm of the molecule)
# constant: B1 constant with K200L, S316L, R322S
# B14: feline IgG1a Fc mutant S428L, S252F (antibody, part only; not given: Variable domains, not shown: another chain or arm of the molecule; small tags and cut ends)
# constant: B1 constant with Y138F, K200L, S316L, R322S
# B15: feline IgG1a Fc mutant S428L, S252W (antibody, part only; not given: Variable domains, not shown: another chain or arm of the molecule; small tags and cut ends)
# constant: B1 constant with Y138W, K200L, S316L, R322S
# B16: feline IgG1a Fc mutant Q311Y, S428L (antibody, part only; not given: Variable domains, not shown: another chain or arm of the molecule; small tags and cut ends)
# constant: B1 constant with Y138S, Q197Y, K200L, S316L, R322S
# B17: feline IgG1a Fc mutant Q311W, S428L (antibody, part only; not given: Variable domains, not shown: another chain or arm of the molecule; small tags and cut ends)
# constant: B1 constant with Y138S, Q197W, K200L, S316L, R322S
# B18: feline IgG1a Fc mutant Q311H, S428L (antibody, part only; not given: Variable domains, not shown: another chain or arm of the molecule; small tags and cut ends)
# constant: B1 constant with Y138S, Q197H, K200L, S316L, R322S
# B19: feline IgG1a Fc mutant Q311K, S428L (antibody, part only; not given: variable domains and light chain, not shown: another chain or arm of the molecule; small tags and cut ends)
# constant: B1 constant with Y138S, Q197K, K200L, S316L, R322S
# B20: feline IgG1a Fc mutant Q311L, S428L (antibody, part only; not given: Variable domains, not shown: another chain or arm of the molecule; small tags and cut ends)
# constant: B1 constant with Y138S, Q197L, K200L, S316L, R322S
# B21: feline IgG1a Fc mutant Q311M, S428L (antibody, part only; not given: Variable domains, not shown: another chain or arm of the molecule; small tags and cut ends)
# constant: B1 constant with Y138S, Q197M, K200L, S316L, R322S
# B22: feline IgG1a Fc mutant Q311R, S428L (antibody, part only; not given: Variable domains, not shown: another chain or arm of the molecule; small tags and cut ends)
# constant: B1 constant with Y138S, Q197R, K200L, S316L, R322S
# B23: feline IgG1a Fc mutant S428L, S434R (antibody, part only; not given: variable domains and light chain, not shown: another chain or arm of the molecule; small tags and cut ends)
# constant: B1 constant with Y138S, K200L, S316L
# B24: feline IgG1a Fc mutant S428M, S252H (antibody, part only; not given: Variable domains, not shown: another chain or arm of the molecule; small tags and cut ends)
# constant: B1 constant with Y138H, K200L, S316M, R322S
# B25: feline IgG1a Fc mutant S428M, S252F (antibody, part only; not given: Variable domains, not shown: another chain or arm of the molecule; small tags and cut ends)
# constant: B1 constant with Y138F, K200L, S316M, R322S
# B26: feline IgG1a Fc mutant S428M, S252W (antibody, part only; not given: variable domains and light chain, not shown: another chain or arm of the molecule; small tags and cut ends)
# constant: B1 constant with Y138W, K200L, S316M, R322S
# B27: feline IgG1a Fc mutant Q311Y, S428M (antibody, part only; not given: Variable domains, not shown: another chain or arm of the molecule; small tags and cut ends)
# constant: B1 constant with Y138S, Q197Y, K200L, S316M, R322S
# How the values were obtained:
# [1] = molecular target: feline FcRn complex (FcRn-α subunit and β-microglobulin) (feline); experiment: SPR (Biacore), FcRn on SA chip, pH 6
# [2] = molecular target: feline FcRn complex (FcRn-α subunit and β-microglobulin) (feline); experiment: SPR (Biacore), FcRn on SA chip, pH 7.4
# [3] = molecular target: Feline FcRn complex (FcRn-alpha subunit and beta-microglobulin) (feline); experiment: SPR (Biacore), feline FcRn captured on SA chip, IgG flowed over, pH 6
binder,measurement,setting,value
B1,Kd,[1],1.3 nM
same,Kd,[2],25.6 nM
B2,Kd,[1],0.442 nM
same,Kd,[2],26.5 nM
B3,Kd,[1],0.974 nM
same,Kd,[2],31.3 nM
B4,Kd,[1],0.488 nM
same,Kd,[2],10.7 nM
B5,Kd,[1],0.443 nM
same,Kd,[2],21.9 nM
B6,Kd,[1],0.365 nM
same,Kd,[2],12.9 nM
B7,Kd,[1],0.715 nM
same,Kd,[2],30.3 nM
B8,Kd,[1],0.551 nM
same,Kd,[2],34.1 nM
B9,Kd,[1],0.394 nM
same,Kd,[2],24.6 nM
B10,Kd,[1],1.55 nM
same,Kd,[2],25.6 nM
B11,Kd,[1],0.859 nM
same,Kd,[2],25.8 nM
B12,Kd,[3],5.94 nM
B13,Kd,[3],4.88 nM
B14,Kd,[3],6.52 nM
B15,Kd,[3],6.14 nM
B16,Kd,[3],5.72 nM
B17,Kd,[3],8.08 nM
B18,Kd,[3],7.19 nM
B19,Kd,[3],5.62 nM
B20,Kd,[3],6.03 nM
B21,Kd,[3],6.44 nM
B22,Kd,[3],5.47 nM
B23,Kd,[3],4.66 nM
B24,Kd,[3],6.83 nM
B25,Kd,[3],5.9 nM
B26,Kd,[3],4.65 nM
B27,Kd,[3],5.73 nM
